Test results taken from patent publication US20210030857A1 (NGM BIOPHARMACEUTICALS, published 2021).
Where “and” joins values, the source holds several entries; their conditions need not be identical. Equal values may be shown once.

Tests used:
[1] = biological target: T1, mouse-human KLB chimeric protein (mouse KLB (M1-F506)-human KLB (S509-S1044)) on cells (mouse/human chimera, UniProt Q86Z14 1-1044 (human entry)); test: FACS on transfected Expi293 cells
T1 construct: also called Mouse-Human chimeric KLB; chMoHu
Description: (§1) Studies were performed in order to localize the binding site on human KLB of anti-beta klotho antibodies in the 5H23 epitope bin, including 5H23 as described in Example 3, with sequences shown in Tables 1-10 and FIGS. 1-3, and human anti-beta klotho antibodies in the 5H23 epitope bin, such as humanized 5H23 antibodies (e.g., VH SEQ ID NO: 271 and VL SEQ ID NO: 276). For example, FACS-based binding assays for domain mapping were performed on Expi293 cells (Life Technologies, A14635) that were transiently transfected with plasmids encoding variants of KLB: human, mouse, cynomolgus, a chimeric version in which the KL1 domain sequence of mouse KLB (M1-F506) replaces the KL1 domain of human KLB (M1-F508) to create mouse-human KLB (SEQ ID NO: 376), and a second chimera in which the human KL1 sequence (M1-F508) replaces the KL1 domain of mouse KLB (M1-F506) to create human-mouse KLB (SEQ ID NO: 374). Additionally, the expression vector pYD7 harboring no KLB sequence was transfected as a negative control.
(§2) In some studies, binding of a purified sample of a humanized 5H23 antibody (e.g., VH SEQ ID NO: 271 and VL SEQ ID NO: 276) to KLB variants was determined by FACS analysis. […] After washing with PBS/1% BSA/0.1% azide, transfected cells were then co-incubated with labeled anti-human Fc (Jackson lmmunoresearch) for 30 minutes at 4° C. After washing with PBS/1% BSA/0.1% azide, cells were acquired on flow cytometer (FACS Calibur) and analyzed by cytometric software (FlowJo). To display the resulting data, graphs plotting the number of cells as a function of fluorescence intensity were generated, and the median fluorescence intensity (MFI) was determined for each sample as shown in Table 30.

[2] = biological target: T2, human beta klotho / human FGFR1c receptor complex on cells (human, UniProt Q86Z14 1-1044; P11362 22-822); test: cell-based or functional assay
[3] = biological target: T3, mouse beta klotho expressed on cells (mouse (Mus musculus), UniProt Q99N32 1-1043); test: FACS on transfected Expi293 cells, antibody 1 µg/ml, labelled anti-human Fc
T3 construct: also called Mouse KLB
T3 sequence: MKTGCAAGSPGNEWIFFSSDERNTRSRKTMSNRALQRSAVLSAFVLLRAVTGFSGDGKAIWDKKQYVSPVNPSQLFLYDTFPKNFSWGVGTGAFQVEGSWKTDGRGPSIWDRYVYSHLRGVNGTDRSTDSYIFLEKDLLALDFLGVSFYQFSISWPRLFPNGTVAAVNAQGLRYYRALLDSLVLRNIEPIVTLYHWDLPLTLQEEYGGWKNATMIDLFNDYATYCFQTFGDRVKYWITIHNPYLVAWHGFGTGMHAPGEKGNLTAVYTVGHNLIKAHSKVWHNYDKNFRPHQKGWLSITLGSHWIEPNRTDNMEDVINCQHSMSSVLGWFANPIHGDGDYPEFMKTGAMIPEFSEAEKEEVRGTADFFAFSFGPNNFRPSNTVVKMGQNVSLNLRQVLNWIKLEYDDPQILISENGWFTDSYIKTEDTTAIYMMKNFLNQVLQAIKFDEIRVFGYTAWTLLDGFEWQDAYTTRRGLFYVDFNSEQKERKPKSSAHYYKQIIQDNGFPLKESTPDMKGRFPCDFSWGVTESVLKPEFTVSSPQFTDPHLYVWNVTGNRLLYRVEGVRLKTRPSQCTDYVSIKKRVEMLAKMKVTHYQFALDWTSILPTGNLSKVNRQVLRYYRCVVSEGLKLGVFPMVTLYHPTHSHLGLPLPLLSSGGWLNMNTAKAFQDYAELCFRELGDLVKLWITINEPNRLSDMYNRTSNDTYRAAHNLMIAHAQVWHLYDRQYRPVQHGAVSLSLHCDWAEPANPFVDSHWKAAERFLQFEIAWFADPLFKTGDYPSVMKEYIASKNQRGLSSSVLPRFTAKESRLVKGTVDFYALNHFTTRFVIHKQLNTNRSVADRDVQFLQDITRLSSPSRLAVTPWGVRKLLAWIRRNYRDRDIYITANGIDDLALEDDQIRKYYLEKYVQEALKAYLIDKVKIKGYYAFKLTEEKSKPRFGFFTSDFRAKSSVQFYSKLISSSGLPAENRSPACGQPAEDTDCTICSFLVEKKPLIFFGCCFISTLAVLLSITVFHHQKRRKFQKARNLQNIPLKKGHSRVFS
Description: as §1, §2

[4] = biological target: T1, mouse-human KLB chimeric protein (mouse …); test: as above
Description: as §1, §2

[5] = biological target: T2, human beta klotho / human FGFR1c …; test: cell-based or functional assay; remark: listed apart in the source
[6] = biological target: cynomolgus beta klotho / human FGFR1c receptor complex on cells (cynomolgus monkey (Macaca …)); test: cell-based or functional assay
Sequence of cynomolgus beta klotho / human FGFR1c receptor complex on cells (cynomolgus monkey (Macaca …)) (chain, as listed by the source limits assumed, chain 1 of 2): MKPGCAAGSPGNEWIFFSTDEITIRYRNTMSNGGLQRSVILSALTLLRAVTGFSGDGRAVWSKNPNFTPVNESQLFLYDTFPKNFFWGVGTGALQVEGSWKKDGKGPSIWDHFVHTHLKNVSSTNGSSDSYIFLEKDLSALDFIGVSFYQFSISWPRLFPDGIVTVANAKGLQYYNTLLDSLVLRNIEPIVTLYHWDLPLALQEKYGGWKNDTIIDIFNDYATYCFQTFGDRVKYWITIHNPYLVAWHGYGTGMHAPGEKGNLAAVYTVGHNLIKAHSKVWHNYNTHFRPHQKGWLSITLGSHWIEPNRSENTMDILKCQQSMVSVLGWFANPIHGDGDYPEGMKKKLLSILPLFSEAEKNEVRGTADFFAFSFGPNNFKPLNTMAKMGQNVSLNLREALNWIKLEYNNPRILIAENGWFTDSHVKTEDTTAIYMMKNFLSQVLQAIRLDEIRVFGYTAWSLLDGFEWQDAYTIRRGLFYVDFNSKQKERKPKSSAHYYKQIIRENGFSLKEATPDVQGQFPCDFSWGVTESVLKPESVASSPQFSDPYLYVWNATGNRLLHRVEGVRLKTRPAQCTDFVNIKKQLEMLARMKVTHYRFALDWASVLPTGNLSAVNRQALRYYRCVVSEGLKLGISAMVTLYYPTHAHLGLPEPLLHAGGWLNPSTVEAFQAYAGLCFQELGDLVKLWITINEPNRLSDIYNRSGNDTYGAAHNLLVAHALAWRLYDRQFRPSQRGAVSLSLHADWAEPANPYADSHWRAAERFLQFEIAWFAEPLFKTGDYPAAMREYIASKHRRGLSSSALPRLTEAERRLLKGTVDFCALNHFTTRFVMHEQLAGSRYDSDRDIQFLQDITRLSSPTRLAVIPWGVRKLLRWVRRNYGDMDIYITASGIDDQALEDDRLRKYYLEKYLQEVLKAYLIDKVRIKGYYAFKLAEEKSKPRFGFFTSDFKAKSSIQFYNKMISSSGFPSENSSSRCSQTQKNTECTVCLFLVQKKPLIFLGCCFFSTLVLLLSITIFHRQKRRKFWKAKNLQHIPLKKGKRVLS
Sequence of cynomolgus beta klotho / human FGFR1c receptor complex on cells (cynomolgus monkey (Macaca …)) (chain, as listed by the source limits assumed, chain 2 of 2): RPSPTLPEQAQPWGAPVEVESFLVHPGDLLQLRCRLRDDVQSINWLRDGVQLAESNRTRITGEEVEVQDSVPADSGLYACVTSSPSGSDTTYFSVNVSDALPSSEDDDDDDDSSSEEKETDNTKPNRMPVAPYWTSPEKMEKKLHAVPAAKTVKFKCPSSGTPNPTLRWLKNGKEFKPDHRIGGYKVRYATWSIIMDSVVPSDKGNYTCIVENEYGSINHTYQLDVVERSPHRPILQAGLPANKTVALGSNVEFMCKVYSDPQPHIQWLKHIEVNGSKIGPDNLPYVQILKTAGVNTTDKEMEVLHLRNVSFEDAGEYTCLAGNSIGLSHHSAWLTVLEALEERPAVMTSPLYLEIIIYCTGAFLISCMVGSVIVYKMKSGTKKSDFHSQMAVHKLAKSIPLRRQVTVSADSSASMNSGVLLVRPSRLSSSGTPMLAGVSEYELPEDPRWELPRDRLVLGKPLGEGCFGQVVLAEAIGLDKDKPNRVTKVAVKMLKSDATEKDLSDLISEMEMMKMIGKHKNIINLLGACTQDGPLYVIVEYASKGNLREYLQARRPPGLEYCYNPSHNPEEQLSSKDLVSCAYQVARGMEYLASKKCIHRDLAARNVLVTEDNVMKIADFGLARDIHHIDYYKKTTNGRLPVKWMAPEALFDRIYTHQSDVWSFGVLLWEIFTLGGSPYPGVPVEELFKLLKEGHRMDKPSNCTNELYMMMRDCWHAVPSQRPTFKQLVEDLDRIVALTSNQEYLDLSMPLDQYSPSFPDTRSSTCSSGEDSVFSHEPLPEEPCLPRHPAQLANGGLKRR

T2 sequence (Q86Z14 whole entry, chain 1 of 2): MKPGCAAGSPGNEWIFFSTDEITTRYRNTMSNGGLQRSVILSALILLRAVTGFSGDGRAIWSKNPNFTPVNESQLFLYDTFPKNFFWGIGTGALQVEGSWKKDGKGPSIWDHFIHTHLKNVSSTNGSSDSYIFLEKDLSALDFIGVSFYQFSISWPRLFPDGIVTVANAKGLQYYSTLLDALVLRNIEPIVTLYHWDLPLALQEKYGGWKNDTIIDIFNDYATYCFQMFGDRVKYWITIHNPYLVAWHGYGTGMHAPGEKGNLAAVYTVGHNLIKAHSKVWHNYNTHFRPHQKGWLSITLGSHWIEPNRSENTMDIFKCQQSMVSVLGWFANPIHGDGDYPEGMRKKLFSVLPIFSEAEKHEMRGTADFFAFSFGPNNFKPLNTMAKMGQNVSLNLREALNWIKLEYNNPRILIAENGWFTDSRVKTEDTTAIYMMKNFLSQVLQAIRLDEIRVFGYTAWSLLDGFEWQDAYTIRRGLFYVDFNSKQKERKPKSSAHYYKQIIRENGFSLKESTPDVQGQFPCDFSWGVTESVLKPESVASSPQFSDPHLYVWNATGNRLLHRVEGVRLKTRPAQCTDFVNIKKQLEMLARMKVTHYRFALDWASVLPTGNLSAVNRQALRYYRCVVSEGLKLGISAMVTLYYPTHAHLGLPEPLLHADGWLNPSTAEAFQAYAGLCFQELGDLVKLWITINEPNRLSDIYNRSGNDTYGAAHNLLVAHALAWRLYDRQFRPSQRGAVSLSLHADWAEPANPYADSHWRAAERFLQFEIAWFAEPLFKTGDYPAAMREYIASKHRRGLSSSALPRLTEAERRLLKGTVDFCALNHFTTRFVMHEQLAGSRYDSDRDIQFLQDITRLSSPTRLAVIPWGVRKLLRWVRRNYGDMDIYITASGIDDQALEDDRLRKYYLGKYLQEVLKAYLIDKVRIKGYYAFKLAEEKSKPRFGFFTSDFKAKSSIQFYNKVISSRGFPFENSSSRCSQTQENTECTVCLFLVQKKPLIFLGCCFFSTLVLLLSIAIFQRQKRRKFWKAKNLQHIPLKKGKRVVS
T2 sequence (P11362 22-822 limits assumed, chain 2 of 2): as the sequence (chain, as listed by the source limits assumed, chain 2 of 2) above

binding result [1]: no binding (tested: 1 µg/ml)
HEK293 huKLB/R1c reporter assay EC50, Experiment - A [2]: 0.0453 nM
HEK293 huKLB/R1c reporter assay EC50, Experiment - B [2]: 0.0279 nM
Mean Fluorescence intensity [3]: 10.6 MFI
Mean Fluorescence intensity [4]: 5.6 MFI
EC50-adipocyte [5]: 3.4 nM
EC50 reporter assay [5]: 0.2 nM and 0.54 nM
HEK293 cynoKLB/R1c reporter assay EC50, Experiment - A [6]: 0.108 nM and 0.178 nM
HEK293 cynoKLB/R1c reporter assay EC50, Experiment - B [6]: 0.227 nM
B1: Control mAb comprising SEQ ID NO: 358 and SEQ ID NO: 360 (antibody, human IgG2, lambda, V domains shown)
VH: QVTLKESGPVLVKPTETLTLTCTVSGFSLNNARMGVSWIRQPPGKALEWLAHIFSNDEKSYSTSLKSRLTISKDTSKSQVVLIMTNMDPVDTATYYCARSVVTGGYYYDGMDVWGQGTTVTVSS
VL: SYVLTQPPSVSVAPGQTARITCGGNNIGSESVHWYQQKPGQAPVLVVYDDSDRPSGIPERFSGSNSGNTATLTISRVEAGDEADYYCQVWDGNSDHVVFGGGTKLTVLG
notes: also called Control antibody
